Assay: yeast display, Sf9 membrane polyspecificity reagent, FACS + sequencing; frameworks hold sequencing errors
Procedure, shortened: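 A nanobody's polyreactivity label depends on the gate it was sorted from. Yeast display cells were stained with 10% biotinylated, detergent-solubilized Sf9 membrane reagent for 1 hour at 4 °C, enriched on streptavidin microbeads and sorted by FACS. The low and high (top ~1%) gates were set on anti-HA fluorescence for expression and streptavidin fluorescence for reagent binding.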

Row | Sequence | polyreactivity (PSR sort gate)
1 | QVQLVESGGGLVQAAGSLRLSCAASGLTFYYYAMGWYRQAPGKERELVAGISGSDGSTYYADSVNGRFTISRDNAKNSVYLQMNSLTPEDTAVYYCAAEYYYAWPLYYITDGIYDMYYWGQGTQVTVSS | low polyreactivity
2 | QVQLVESGGGLVQAAGSLRLSCAASGRILDFYDMGWYRQAPGKERELVAAITSGTSTYYADSVKGRFTISRDNAKNTVYLQMNSMKPEDTAVYYCAAAHVPVGQYVYWYDYWGQGTQVTVSS | low polyreactivity
3 | QVQLVESGGGLVQAAGSLRLSCAASGRTFSANAMGWYRQAPGKERELVATISSGGRTNYADSVKGRFTISRDNAKNTVYLQMNSLKPEDTAVYYCAKRGPYKRWYGRYDYCGQGTQVTVSS | low polyreactivity
4 | QVQLVESGGGLVQAAGSLRLSCAASGSIFIQYAMGWYRQAPGKERELVAAITRRGGRTYYADSVKGRFTISRDNAKNTVYLQLNSLKPEDTAVYYCNAVPIGQWAYDYWGQGTQVTVSS | high polyreactivity
5 | QVQLVESGGGLVQAAGSLRLSCAASGSIFTVYVMGWYRLAPGKEREFVATINWRGTSTYYADSVKGRFTISRDNEKNTVYLQMNSLKPEDTAVYYCAAVGSYYGGYDYWGQGTQVTVSS | high polyreactivity
6 | QVQLVESGGGLVQAAGSLRLSCAASGSISGYYAMGWYRQAPGKERELVASIRYTGARTYYADSVKGRFTISRDNAKNTVYLQMNSLKPEDTAVYYCAADVKRDRVWGGDYWGQGTQVTVSS | low polyreactivity
7 | QVQLVESGGGLVQAAGSLRLSCAASGSPFSGYAMGWYRQPPGKQRELVAAISWRGVRTSYADSVKGRFTISRDNAKNRVYLQMNSLKPEDSAVYYCDAVRYITKEFYWGQGTQVTVSS | high polyreactivity
8 | QVQLVESGGGLVQAAGSLRLSCAASGSTFADNAMGWYRQAPGKEREMVAANSRRGGSTYYADSVKGRFTISLDNAKNTVYLQMNSLKPEDTAVYYCAKPSGLVVNQYRAGMEYWGQGTQVTVSS | high polyreactivity
9 | QVQLVESGGGLVQAAGSLRLSCASSGSIIFYYAMGWYRQAPGNEREFVAAITRSGVRTYYADSVKGRFTISRDNAKNTVYLQMNSLIPEDTAVYYCIAEAYPYWYRGASREYDYWGQGTQVTVSS | low polyreactivity
10 | QVQLVESGGGLVQAEGSLRLSCAASGNTFERNTMGWYRQATGKERELVAAISWSGGRTYYADSVKGRFTISRDNAKNTVYLQLNSLKPEDTAVYYCAATNYYYGAGYYYWGQGTQVTVSS | high polyreactivity
11 | QVQLVESGGGLVQAGASLRISCAASGYTFYANAMGWYIQAPGKEREFVASITWSGGSTYYADSVKGRFTISRDNAKNTVYLQMNSLKPEDTAVYYCAAESWFKYDYWGQGTQVTLSS | low polyreactivity
12 | QVQLVESGGGLVQAGASLRLICAASGSTFQGNAIGWNRQAPGKERELVAAISRSGGSTYADSVKGRFTISRDNAKNTVYLQLNSLKPEDTAVYYCAAYSGVGYLWFDYWGQGTQVTVSS | low polyreactivity
13 | QVQLVESGGGLVQAGASLRLSCAASGITFWGYAMGWYRQAPGKEREFVARINWSGGRTYYAESVKGRFTISRDNAKNTVYLEMNSLKPEDTAVYDCAATSLIYGYRTYDYWGQGTQVTVSS | high polyreactivity
14 | QVQLVESGGGLVQAGASLRLSCAASGLTFEYYTMGWYRQAPGKERELVAAITSSGGSTYYADSVKGRFTISRDNAKNTVYLQMNSLKPEDTAVYYCNAYWTYEFPSYDYWGQGTQVTVSS | low polyreactivity
15 | QVQLVESGGGLVQAGASLRLSCAASGRIYIYAMGWYRQAPGKEREMVAAITGGASTNYADSVKGRFTISRDNAKNTVYLQLISLKPEDTAVYYCNAVAYVYGSFRRRPMGYWGQGTQVTVSS | high polyreactivity
16 | QVQLVESGGGLVQAGASLRLSCAASGRTFAYYAMGWYRQAPGKERELVATITSSVGRTYYADSVKGRFTISRDNAKNTVYLQINSLKPEDTAVYYCNASDWGRTRGGGYPWLYRYDYWGQGTQVTVSS | low polyreactivity
17 | QVQLVESGGGLVQAGASLRLSCAASGRTFHYYVKGWYRQAPGKERELVAAISRSGGRTYYADSVKGRFTISRDNAKNTVYLQMNSLNPEDTAVYFCAARSGYYYSEGAWRRDYWGQGTQVTLSS | high polyreactivity
18 | QVQLVESGGGLVQAGASLRLSCAASGRTLTGYAMGWYRQAPGKERELVAAITWRDSTYYADSVKGRFTISRDNAKNTVYLQMNSLKPEDTAVYYCNADNATYFVYEFNYWGQGTQVTVSS | low polyreactivity
19 | QVQLVESGGGLVQAGASLRLSCAASGSIFIWYAMGWYRQAPGKERELVAAITSSGSTNYADSVKGRFTISRDNAKNPVYLQMNSLKPEDTAVYYCAAEYTYYTYNLNYWGQGTQVTVSS | low polyreactivity
20 | QVQLVESGGGLVQAGASLRLSCAASGSIFVLYGMGWYRQAPGKERELVAAISAGITNYADSVKGRFTISRDNAKNTVYLQMNSLKPEDTAVYYCATVDGAYQYTYDFWGQGTQVTVSS | low polyreactivity
21 | QVQLVESGGGLVQAGASLRLSCAASGSIFYDNAMGWYRQAPGKERELVASIRWSGDSTYYADSVKGRITISRDNAKNTVYLQMNSLKPEDTAVYYCAADPVEPYFTAIAYDYWGQGTQVTVSS | low polyreactivity
22 | QVQLVESGGGLVQAGASLRLSCAASGSTFLLNAMGWYRQAPGKERELVAAITSSGGTNYADSVKGRFTISRDNAKNTVYLQMNSLKPEDTAVYYCNTRYSPGYQGSEVDYWGQGTQVTVSS | low polyreactivity

Row | Sequence | polyreactivity (PSR sort gate)
23 | QVQLVESGGGLVQAGASLRLSCAASGSTFYFYTMGWYRQAPWKERELVAAITRDGSTYYADSVKGRFTISRDNAKNTVYLQMNSLKPEDTAVYYCNALRWAYKFSAYYYWGQGTQVSVSS | low polyreactivity
24 | QVQLVESGGGLVQAGASLRLSCAASGSTYVRNAMGWYRQAPGKERELVAAITSGGNTYADSVKGRFTISRDNAKNTVYLQMNSLKPEDTAVYYSAAANEFGDVWAQFDYWGQGTQVTVSS | low polyreactivity
25 | QVQLVESGGGLVQAGASLRLSCAASVSIFDTNAMGWYRQAPGKERELVASISSGGGSTYYADSVKGRFTISRDNAKNTVYLQMNSLKPEDTAVYFCARRIGHGSRPYWLETWRYAYDYWGQGSQVTVSS | low polyreactivity
26 | QVQLVESGGGLVQAGATIRLSCAASVRTFESNALGWYRQEPGKERELVAGITSGGITNYADSVKGRFTISRDNAKNNVYLQMNSLKPEDTAVYYCEFYYWGQGTQVTVSS | low polyreactivity
27 | QVQLVESGGGLVQAGCRLRLSCAAAAYIYRYAMGWYIQAPGKEREFVAAITWNGGSTYYADSVNGRFTISRDNAKITVYLQMNSLKPEDTGVYYCADDWSYYRRHFDYWGHGTQVTVSS | high polyreactivity
28 | QVQLVESGGGLVQAGCSLGLSCAASGRIVDYKAMGWYRQAPGKEWELVATLTSSSVRTHYPDSLKGRFSISRDNAKNTVYLQMNSLNPEDTSVYYWNAAYGPRYPRRYDYWGQGTQVTVSS | low polyreactivity
29 | QVQLVESGGGLVQAGCSLRGSCAAYRSTFIRYAMGWSRPAPGKERELVAAITWRGGSTYYADSVKGRFTISRDNEKNTVYLQMKSLKPDDSAVSFCAARDRDTRNYYWVQGTQVTVSS | high polyreactivity
30 | QVQLVESGGGLVQAGCSLRISCAASGITFGRKTMGWSRQAPGKERELVAAIDSGGNTYADSVKGRFTISRDNAKNTVYLQMNSLKPEDTAVYYCAVDGGEFSSYGYWGQGTQVTVSS | low polyreactivity
31 | QVQLVESGGGLVQAGCSLRLICAAAGIIFSSYAMGWYRQAPGKERELVAAISWNGGRTYYADSVKGRFTISRDNAKNTVYLQMNSLKPEDTAVYYCAAPHSVPDLHSGDYWGQGTQVTVSS | low polyreactivity
32 | QVQLVESGGGLVQAGCSLRLICAASGLYAMGWYRQAPGKERELVADINSSGGSITNYADSVKGRFTISRDNAKNTVYLQMNSLKPEDTAVYDCAAPALGNYFYGYDYWGQGTQVTVSS | low polyreactivity
33 | QVQLVESGGGLVQAGCSLRLRCAASGFTFYSYAMGWYRQAPGKERELVANITIGGSTYADSVKGRFTISRDNAKNNVYLQMNSLNPEDTAVYYCARGYRVVGDPLYGEYDYWGQGSQVTVSS | low polyreactivity
34 | QVQLVESGGGLVQAGCSLRLSCAASGFIFGPNAMGWYRQAPGKERELVAAISWIGSSTYYADSVKGRFTISRDNAKNTVYLQMNSLKPQDNAVYYCAADSSERRLMDFDYWGQGTQVTVSS | low polyreactivity
35 | QVQLVESGGGLVQAGCSLRLSCAASGFIFIRYAKGWYRQAPGQESELVASISSGGSTYYADSVKGRFTISRDNAKNTVYLQMNSLKPEDTAVYYCAAVFSKGLEGDYWGQGTQVTVSS | high polyreactivity
36 | QVQLVESGGGLVQAGCSLRLSCAASGFILNWYAMGCYRQAPGKERELVAAISWTTSDTYYADSVKGRFTISRDNAKHTVYLQMNSLKPEDQAVYYCATQGYISFPPPAYYEYNYWGQGTQETVSS | low polyreactivity
37 | QVQLVESGGGLVQAGCSLRLSCAASGFILSDNAMGWYRQAPGKERELVAAINSGGSTYYADSVKGRFTISRDNAKNTVYFQMNSLKPEDSAVYYCAADYSTWLRAYDYWGQGTQVTVSS | low polyreactivity
38 | QVQLVESGGGLVQAGCSLRLSCAASGFTFAKYAMGRYRQAPGKERELVAAITYRDGSTYYADSVKGRFTISRDYAKNTVYLQMNSLKPEDSAVYYCAAVASYVRYGYWGQGTQVTVSS | high polyreactivity
39 | QVQLVESGGGLVQAGCSLRLSCAASGFTFFRNAMGWYRQAPGKERELVAAISGSGGSTYYADSVKGRFTISRDNAKNTVYLQMNSLKPEDTAVYYCATYSYPAKVREAYNYWGQGTQVTVSS | low polyreactivity
40 | QVQLVESGGGLVQAGCSLRLSCAASGFTFGDNAMGWYRQAPGKDRELDARITGDGSTYYADSVKGRFTISRDNAKNTVYLQTNSLKPEDTAVYYCAADYSPRYTQIEYGYWGQGTQVTVSS | low polyreactivity
41 | QVQLVESGGGLVQAGCSLRLSCAASGFTFRANGMGWYRQAPGKERELVATITSGGTTNYADSVKGRFTISRDNAKNTVYLQMNSLKPEDTAVYYCAKRFGPAYFRLYDYWGQGTQVTVSS | low polyreactivity
42 | QVQLVESGGGLVQAGCSLRLSCAASGFTFRYYAMGSYRQAPGKERELVSAISQSGGLTFYADSVKGRFTISRDNAKITVYLQMNSLKPVDTAVFYCAAGRRTYPSKYGSWGQGSQVTVSS | high polyreactivity
43 | QVQLVESGGGLVQAGCSLRLSCAASGGTFRSNAMGWYRKAPGKERELVAASTNYADSVKGRFTISRDNAKNTVYLQMNSLKPEDTAVYYCAAGPTDSQTGMDYWGQGTQVTVSS | low polyreactivity

From the nanobody polyreactivity screen of Harvey et al. (2022)
